Test results taken from publication PMC4850634, “Characterization of an A-kinase anchoring protein-like suggests an alternative way of PKA anchoring in Plasmodium falciparum” (Malaria Journal, 2016).

Biological target: the molecule itself
Assay: SEC; Superdex S200 10/300 Increase, 20 mM Tris-HCl pH 8, 300 mM NaCl; affinity-purified (His)6 protein; peak fractions checked by 12.5 % SDS-PAGE

B1: (His)6-Pf14-3-3I (natural protein, Plasmodium falciparum, UniProt C0H4V6 1-262, looked up)
chain: MATSEELKQLRCDCTYRSKLAEQAERYDEMADAMRTLVEQCVNNDKDELTVEERNLLSVAYKNAVGARRASWRIISSVEQKEMSKANVHNKNVAATYRKKVEEELNNICQDILNLLTKKLIPNTSESESKVFYYKMKGDYYRYISEFSCDEGKKEASNCAQEAYQKATDIAENELPSTHPIRLGLALNYSVFFYEILNQPHQACEMAKRAFDDAITEFDNVSEDSYKDSTLIMQLLRDNLTLWTSDLQGDQTEEKSKDEGLE
notes: 14-3-3I protein, Plasmodium falciparum, PlasmoDB MAL8P1.69/PF3D7_0818200; amplified from a P. falciparum cDNA library with primers from the start to the stop codon, cloned into pRSFDuet; recombinant protein 30 kDa; source: E. coli BL21 Codon Plus, purified (Ni-NTA-agarose)
stoichiometry N: 2
